What was measured:
[1] = molecular target: T1, rat AMHR-II-ECD-Fc (rat, UniProt Q62893 18-144); assay: ELISA, 100 ng per well coated Fc fusion, serially diluted 4A3
T1 construct: extracellular domain; Bought reagent (R&D Systems); also called rat AMHR-II receptor; not shown: Fc part of the bought fusion protein (R&D Systems)
T1 sequence (looked up): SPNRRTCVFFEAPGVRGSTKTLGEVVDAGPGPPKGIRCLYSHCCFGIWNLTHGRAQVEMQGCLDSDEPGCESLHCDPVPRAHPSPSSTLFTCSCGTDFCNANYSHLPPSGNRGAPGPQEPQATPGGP
Experimental: (§1) The binding capacity of the anti-AMHR-II 4A3 antibody was evaluated by ELISA. ELISA plates (96 wells, Maxisorp, Nunc) were coated overnight at +4° C. with 100 ng per well of human AMHR-II-ECD-Fc, rat AMHR-II-ECD-Fc or human ALK3-ECD-Fc (R&D Systems).
(§2) Coated plates were blocked with PBS-BSA 2% for 1 hour at 37° C. and washed three times with PBS-Tween20 0.05%. The anti-AMHR-II 4A3 antibody was serially diluted in PBST-BSA1% and incubated for 1 hour at 37° C. The bound anti-AMHR-II 4A3 was detected by adding HRP-conjugated F(ab′)2 goat anti-human F(ab′)2 fragment specific (Interchim) diluted at 1:10000 and incubated for one hour at 37° C. Revelation was done with TMB (Sigma) and the reaction was stopped by adding H₂SO₄ 1N (v:v). Absorbances were measured at 450 nm and binding data curves were analysed using GraphPad Prism 8 software.

[2] = molecular target: T2, human ALK3-ECD-Fc (human, UniProt P36894 24-152); assay: as above
T2 construct: extracellular domain; Bought reagent (R&D Systems), used as negative control; also called human ALK3 receptor; negative control; not shown: Fc part of the bought fusion protein (R&D Systems)
Experimental: as §1, §2

[3] = molecular target: T3, human AMHR-II-ECD-Fc (human, UniProt Q16671 18-149); assay: ELISA, coated human AMHR-II-ECD-Fc, detection with HRP anti-human F(ab')2
T3 construct: Bought reagent (R&D Systems); Only its extracellular domain stood in the assay; also called extracellular domain of human AMHR-II receptor; not shown: Fc part of the bought fusion protein (R&D Systems)
Experimental: as §1, §2

[4] = molecular target: T4, human AMHR-II receptor expressed at the surface of the COV434-AMHR-II transfected cell line (human, UniProt Q16671 18-573); assay: flow cytometry on COV434 AMHR-II transfected cells, 67 nM to 0.2 pM, one-site specific binding fit
T4 sequence: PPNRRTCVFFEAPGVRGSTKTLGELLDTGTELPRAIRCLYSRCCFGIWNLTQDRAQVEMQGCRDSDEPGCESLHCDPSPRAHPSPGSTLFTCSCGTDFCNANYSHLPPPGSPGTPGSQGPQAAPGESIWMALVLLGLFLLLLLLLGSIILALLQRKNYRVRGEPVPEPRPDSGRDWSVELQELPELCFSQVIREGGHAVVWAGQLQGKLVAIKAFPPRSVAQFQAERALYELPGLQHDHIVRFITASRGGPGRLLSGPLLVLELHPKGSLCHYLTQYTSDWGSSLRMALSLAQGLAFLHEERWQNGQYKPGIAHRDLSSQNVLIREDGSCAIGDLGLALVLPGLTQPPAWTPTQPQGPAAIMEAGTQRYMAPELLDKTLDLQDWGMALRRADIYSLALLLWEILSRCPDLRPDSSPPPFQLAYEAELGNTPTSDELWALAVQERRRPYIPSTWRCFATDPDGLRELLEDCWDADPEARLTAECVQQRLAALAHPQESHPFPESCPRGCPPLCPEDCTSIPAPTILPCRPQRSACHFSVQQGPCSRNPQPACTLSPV
Experimental: For Fluorescent-activated cell sorting (FACS) analysis, 3×10⁵ cells were incubated for 1 hour at 4° C. with 10 μg/ml of 4A3 antibody (FIG. 2A) or with a range of 4A3 concentrations (from 67 nM to 0.2 pM, FIG. 2B). After washes, Phycoerythrin-conjugated anti-human IgG antibody (1:200, Interchim) was added for 1 hour at 4° C. FACS analysis of the resuspended cells was done on a BD Accuri™ C6 flow cytometer (BD Bioscience). Binding affinity were determined using GraphPad Prism 8 with “one-site specific binding” fit equation.

T2 sequence (P36894 24-152): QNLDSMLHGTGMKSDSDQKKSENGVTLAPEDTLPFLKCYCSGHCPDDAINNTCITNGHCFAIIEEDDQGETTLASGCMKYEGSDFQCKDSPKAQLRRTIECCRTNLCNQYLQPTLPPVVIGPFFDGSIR

binding result [1]: no binding | binding result [2]: no binding | EC50 [3]: 6 nM | Kd [4]: 2.1 nM
B1: anti-AMHR-II 4A3 antibody (antibody, human IgG1, lambda, V domains shown)
VH: EVQLVESGGSLVKPGGSLRLSCAASGFTFSNNAMNWVRQAPGKGLEWISYISGSSRYISYADFVKGRFTISRDNAKNSLYLQMNSLRAEDTAVYYCVRSSDDYFGGGMDVWGRGTLVTVSS
VL: QSVLTQPASVSGSPGQSITISCAGTSSDVGGDNDVSWYQQHPGKAPKLMIYYDSYRPSGVSNRFSGSKSGNTASLTISGLQAEDEADYYCSSSTYYSTRVFGGGTKLTVLG
notes: The tie is therefore indirect; 4A3 was detected with anti-human F(ab')2 and anti-human IgG secondary reagents; also called antibody 4A3; 4A3 antagonist antibody

Reference: patent US20230348607A1 (EXELIXIS, published 2023)
